This data set deals with the molecule itself. Description: native gel or EMSA; NativePAGE (Invitrogen) of the synthetic Aβ1-42 preparation, detected with antibody 4G8; guanidine hydrochloride (1:1) used to break down oligomers.

B1: synthetic rat Aβ1-42 peptide (peptide, UniProt P08592 672-713, looked up)
peptide: DAEFGHDSGFEVRHQKLVFFAEDVGSNKGAIIGLMVGGVVIA
notes: amyloid-beta 1-42, cut product of the amyloid precursor protein (APP), rat; Oligomer preparation: 100 uM stock in 200 mM HEPES pH 8.5, agitated for 30 min at room temperature; also called amyloid-β 1-42; rodent Aβ_(1-42); source: synthetic peptide; bought: Calbiochem
With B1, the binding result was “binds”.

The values are drawn from publication PMC7297996, “Alzheimer’s disease-related dysregulation of mRNA translation causes key pathological features with ageing” (Translational Psychiatry, 2020).
